The text below walks through data of article PMC13218723, “A novel RAB5 binding site in human VPS34-CII that is likely the primordial site in eukaryotic evolution” (eLife, 2026).

Several values for one entry are separate records, joined by “and”; a condition that tells them apart may be missing. Identical values can stand only once.

The target in assay [1] is mCherry-tagged human VPS34-CII with VPS34 199-REIE-202>199-AAAA-202 (human, UniProt Q8NEB9 1-887; Q99570 1-1358; Q14457 1-450; Q9P2Y5 1-699, 199-REIE-202>199-AAAA-202).
The target in assay [2] is T1, mCherry-tagged human VPS34 complex II (VPS34-CII), wild type (human, UniProt Q8NEB9 1-887; Q99570 1-1358; Q14457 1-450; Q9P2Y5 1-699).
T1 construct: human VPS34 (class III PI3K), full length, untagged; human VPS15, full length, with C-terminal 3xTEV-ZZ removed by TEV; human BECLIN1, full length; human UVRAG, full length, untagged; Held on RFP-trap beads by the mCherry on BECLIN1; also called mCherry-VPS34-CII; WT VPS34-CII; source: Expi293 cells, transfected; purified (IgG beads, TEV cleavage, S200 gel filtration); not shown: ZZ (protein A), …
Description: confocal microscopy bead-based binding assay; RFP-trap agarose beads coated with 2 µM mCherry-tagged VPS34 complex (or mCherry alone); AF488-labelled RAB protein added at varying concentrations; 20 mM HEPES pH 8.0, 100 mM NaCl, 0.5 mM TCEP; 30 min on ice; AF488 normalised by mCherry intensity; fit 'One site - specific binding'. The note with it: both partners purified.

Assay [3] concerns the target T2, mCherry-tagged human VPS34-CII with VPS34 199-REIE-202>199-AAAA-202 (human, UniProt Q8NEB9 1-887; Q99570 1-1358; Q14457 1-450; Q9P2Y5 1-699, 199-REIE-202>199-AAAA-202).
T2 construct: human VPS34, full length, untagged, REIE to AAAA in C2 HH helix 2; human VPS15, full length, with C-terminal 3xTEV-ZZ removed by TEV; human BECLIN1, full length; human UVRAG, full length, untagged; also called VPS34-CII REIE >AAAA; source: Expi293 cells, transfected; purified (IgG beads, TEV cleavage, S200 gel filtration); not shown: ZZ (protein A), C-terminal, cleaved; mCherry, N-terminal, kept; …
The description is as above. As to conditions: both partners purified.

In assay [4] the target is T3, mCherry-tagged human VPS34-CII with VPS34 199-REIE-202>199-ERIR-202 (human, UniProt Q8NEB9 1-887; Q99570 1-1358; Q14457 1-450; Q9P2Y5 1-699, R199E | E200R | E202R).
T3 construct: human VPS34, full length, untagged, R199E E200R E202R; human VPS15, full length, with C-terminal 3xTEV-ZZ removed by TEV; human BECLIN1, full length; human UVRAG, full length, untagged; also called VPS34-CII REIE >ERIR; reverse charge mutant; source: Expi293 cells, transfected; purified (IgG beads, TEV cleavage, S200 gel filtration); not shown: ZZ (protein A), C-terminal, cleaved; mCherry, …
Described as above. The note with it: both partners purified.

In assay [5] the target is T4, mCherry-tagged human VPS34-CII with VPS15 579-SHMIT-583>579-DDMIE-583 (human, UniProt Q8NEB9 1-887; Q99570 1-1358; Q14457 1-450; Q9P2Y5 1-699, S579D | H580D | T583E).
T4 construct: human VPS34, wild type; human VPS15, full length, S579D H580D T583E, with C-terminal 3xTEV-ZZ removed by TEV; human BECLIN1, full length; human UVRAG, full length, untagged; also called VPS34-CII VPS15 mutant; VPS15 mut; source: Expi293 cells, transfected; purified (IgG beads, TEV cleavage, S200 gel filtration); not shown: ZZ (protein A), C-terminal, cleaved; mCherry, N-terminal, kept; copies: + …
T4 sequence (Q8NEB9 whole entry, chain 1 of 4): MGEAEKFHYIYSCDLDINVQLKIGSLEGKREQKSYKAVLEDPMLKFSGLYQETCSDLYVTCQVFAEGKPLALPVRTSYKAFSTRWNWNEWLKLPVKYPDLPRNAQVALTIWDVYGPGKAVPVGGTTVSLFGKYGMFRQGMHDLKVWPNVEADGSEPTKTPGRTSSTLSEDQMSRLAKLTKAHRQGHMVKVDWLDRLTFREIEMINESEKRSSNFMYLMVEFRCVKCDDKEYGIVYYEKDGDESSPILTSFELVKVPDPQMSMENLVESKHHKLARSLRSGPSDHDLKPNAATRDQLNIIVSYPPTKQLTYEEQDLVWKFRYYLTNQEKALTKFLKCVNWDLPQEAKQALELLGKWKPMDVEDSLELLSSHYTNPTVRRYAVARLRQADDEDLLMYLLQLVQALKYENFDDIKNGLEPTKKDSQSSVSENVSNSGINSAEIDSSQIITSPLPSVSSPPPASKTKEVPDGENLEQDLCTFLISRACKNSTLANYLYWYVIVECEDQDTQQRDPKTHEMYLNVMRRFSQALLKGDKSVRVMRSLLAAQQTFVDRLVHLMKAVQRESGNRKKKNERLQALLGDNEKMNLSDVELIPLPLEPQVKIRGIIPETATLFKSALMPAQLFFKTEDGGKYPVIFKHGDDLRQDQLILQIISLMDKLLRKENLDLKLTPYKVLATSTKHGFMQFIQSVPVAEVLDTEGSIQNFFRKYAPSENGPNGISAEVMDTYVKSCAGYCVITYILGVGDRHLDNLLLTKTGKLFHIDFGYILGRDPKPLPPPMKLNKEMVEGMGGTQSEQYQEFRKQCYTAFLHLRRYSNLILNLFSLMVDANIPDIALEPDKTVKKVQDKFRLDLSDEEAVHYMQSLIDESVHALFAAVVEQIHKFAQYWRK
T4 sequence (Q99570 whole entry S579D/H580D/T583E, chain 2 of 4): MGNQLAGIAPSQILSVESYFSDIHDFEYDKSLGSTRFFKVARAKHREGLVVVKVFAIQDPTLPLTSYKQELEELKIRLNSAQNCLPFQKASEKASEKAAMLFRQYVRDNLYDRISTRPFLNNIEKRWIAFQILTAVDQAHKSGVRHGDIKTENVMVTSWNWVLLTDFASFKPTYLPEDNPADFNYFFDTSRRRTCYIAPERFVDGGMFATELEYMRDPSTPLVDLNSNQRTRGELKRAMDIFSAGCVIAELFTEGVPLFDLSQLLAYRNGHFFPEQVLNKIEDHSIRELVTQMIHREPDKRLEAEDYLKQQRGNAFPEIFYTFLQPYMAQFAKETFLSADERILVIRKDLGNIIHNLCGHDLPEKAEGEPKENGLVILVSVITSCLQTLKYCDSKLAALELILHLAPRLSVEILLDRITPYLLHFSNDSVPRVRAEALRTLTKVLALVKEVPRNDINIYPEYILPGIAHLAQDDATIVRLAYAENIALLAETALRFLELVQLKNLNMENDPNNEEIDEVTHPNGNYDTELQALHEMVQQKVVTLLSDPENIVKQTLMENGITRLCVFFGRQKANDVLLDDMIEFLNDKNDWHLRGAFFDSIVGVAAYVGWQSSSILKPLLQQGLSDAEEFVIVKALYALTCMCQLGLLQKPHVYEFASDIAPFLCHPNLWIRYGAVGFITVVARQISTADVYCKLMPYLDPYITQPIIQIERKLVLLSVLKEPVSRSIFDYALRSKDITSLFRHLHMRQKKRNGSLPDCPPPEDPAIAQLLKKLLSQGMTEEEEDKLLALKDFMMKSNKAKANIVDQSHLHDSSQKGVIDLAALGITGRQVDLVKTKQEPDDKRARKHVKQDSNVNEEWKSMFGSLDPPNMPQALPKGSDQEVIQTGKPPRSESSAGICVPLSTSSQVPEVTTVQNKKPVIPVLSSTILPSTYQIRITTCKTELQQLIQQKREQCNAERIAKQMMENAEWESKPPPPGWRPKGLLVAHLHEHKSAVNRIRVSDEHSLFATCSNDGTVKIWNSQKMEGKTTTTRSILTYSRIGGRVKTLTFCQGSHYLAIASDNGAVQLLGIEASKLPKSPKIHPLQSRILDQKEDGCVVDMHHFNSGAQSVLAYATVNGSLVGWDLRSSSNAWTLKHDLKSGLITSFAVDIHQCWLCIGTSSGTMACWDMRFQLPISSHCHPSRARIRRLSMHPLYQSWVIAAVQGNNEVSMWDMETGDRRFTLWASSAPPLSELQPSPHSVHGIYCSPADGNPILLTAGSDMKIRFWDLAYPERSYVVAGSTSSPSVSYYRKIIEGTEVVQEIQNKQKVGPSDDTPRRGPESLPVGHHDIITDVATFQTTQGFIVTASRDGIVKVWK
T4 sequence (Q14457 whole entry, chain 3 of 4): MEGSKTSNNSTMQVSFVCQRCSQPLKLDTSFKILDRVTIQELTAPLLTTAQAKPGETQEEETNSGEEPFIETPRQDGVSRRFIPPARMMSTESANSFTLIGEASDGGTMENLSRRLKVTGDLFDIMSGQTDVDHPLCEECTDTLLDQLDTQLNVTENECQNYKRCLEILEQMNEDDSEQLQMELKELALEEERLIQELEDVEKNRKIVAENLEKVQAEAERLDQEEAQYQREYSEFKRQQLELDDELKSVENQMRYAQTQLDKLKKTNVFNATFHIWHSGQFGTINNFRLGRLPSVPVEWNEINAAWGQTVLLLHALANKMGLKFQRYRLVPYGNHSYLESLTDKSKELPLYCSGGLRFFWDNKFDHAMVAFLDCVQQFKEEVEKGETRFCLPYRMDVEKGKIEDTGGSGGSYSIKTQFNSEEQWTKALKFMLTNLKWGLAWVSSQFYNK
T4 sequence (Q9P2Y5 whole entry, stated change not applied, chain 4 of 4): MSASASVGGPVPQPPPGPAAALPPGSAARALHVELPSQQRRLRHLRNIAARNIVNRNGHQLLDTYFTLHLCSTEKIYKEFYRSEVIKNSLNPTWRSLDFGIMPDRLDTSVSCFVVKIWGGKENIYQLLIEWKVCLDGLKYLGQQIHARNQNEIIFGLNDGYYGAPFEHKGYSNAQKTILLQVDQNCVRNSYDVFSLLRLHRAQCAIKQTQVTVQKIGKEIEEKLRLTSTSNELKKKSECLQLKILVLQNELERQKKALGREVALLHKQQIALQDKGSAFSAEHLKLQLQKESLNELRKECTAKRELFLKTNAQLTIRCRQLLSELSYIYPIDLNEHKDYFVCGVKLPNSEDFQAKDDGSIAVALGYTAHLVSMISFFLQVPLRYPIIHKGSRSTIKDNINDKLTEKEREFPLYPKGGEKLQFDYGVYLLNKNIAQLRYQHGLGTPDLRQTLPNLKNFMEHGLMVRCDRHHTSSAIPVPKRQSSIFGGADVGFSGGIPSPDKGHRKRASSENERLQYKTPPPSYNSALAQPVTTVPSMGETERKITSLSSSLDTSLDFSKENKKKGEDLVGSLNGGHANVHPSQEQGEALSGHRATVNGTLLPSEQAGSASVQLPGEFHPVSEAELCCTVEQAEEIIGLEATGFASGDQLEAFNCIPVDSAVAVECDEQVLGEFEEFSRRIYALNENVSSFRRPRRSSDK
The assay is described as above. As to conditions: both partners purified.

Assay [6] deals with T5, mCherry-tagged human VPS34 complex II, wild type (VPS34, VPS15, mCherry-BECLIN1, UVRAG) (human, UniProt Q8NEB9 1-887; Q99570 1-1358; Q14457 1-450; Q9P2Y5 1-699).
T5 construct: VPS34 (PIK3C3), human, full length, untagged; VPS15, human, full length; BECLIN1, human, full length; UVRAG, human, full length, untagged; Held on RFP-trap beads by the mCherry on BECLIN1; also called VPS34-CII; WT VPS34-CII; source: Expi293 cells, transfected, purified (IgG beads, TEV cleavage, gel filtration); not shown: ZZ, C-terminal, cleaved; mCherry, N-terminal, kept; copies: + + +
Description: confocal microscopy bead-based binding assay; mCherry-tagged VPS34 complex (2 µM) held on RFP-trap agarose beads, AF488-labelled RAB5A added at varying concentrations; 20 mM HEPES pH 8.0, 100 mM NaCl, 0.5 mM TCEP; 30 min on ice; AF488 intensity normalised by mCherry intensity; GraphPad Prism fit 'One site - specific binding'; fit of the representative experiment. The note with it: both partners purified.

For assay [7], the target named is T6, mCherry-tagged human VPS34 complex II with VPS34 199-REIE-202>ERIR (human, UniProt Q8NEB9 1-887; Q99570 1-1358; Q14457 1-450; Q9P2Y5 1-699, R199E | E200R | E202R).
T6 construct: VPS34 (PIK3C3), human, full length, untagged, R199E E200R E202R (199-REIE-202 to ERIR); VPS15, human, full length; BECLIN1, human, full length; UVRAG, human, full length, untagged; also called VPS34-CII REIE >ERIR; CII-ERIR; source: Expi293 cells, transfected, purified (IgG beads, TEV cleavage, gel filtration); not shown: ZZ, C-terminal, cleaved; mCherry, N-terminal, kept; copies: + + +
The assay is described as above. As to conditions: both partners purified.

In assay [8] the target is T7, mCherry-tagged human VPS34 complex II with VPS15 579-SHMIT-583>DDMIE (human, UniProt Q8NEB9 1-887; Q99570 1-1358; Q14457 1-450; Q9P2Y5 1-699, S579D | H580D | T583E).
T7 construct: VPS34 (PIK3C3), human, wild type; BECLIN1, human, full length; UVRAG, human, full length, untagged; also called VPS34-CII VPS15 mutant; CII-DDMIE; source: Expi293 cells, transfected, purified (IgG beads, TEV cleavage, gel filtration); not shown: ZZ, C-terminal, cleaved; mCherry, N-terminal, kept; copies: + + +
Described as above. The note with it: both partners purified.

Assay [9] concerns the target T8, mCherry-tagged human VPS34 complex II with VPS34 199-REIE-202>AAAA (human, UniProt Q8NEB9 1-887; Q99570 1-1358; Q14457 1-450; Q9P2Y5 1-699, 199-REIE-202>199-AAAA-202).
T8 construct: VPS34 (PIK3C3), human, full length, untagged, 199-REIE-202 changed to AAAA; VPS15, human, full length; BECLIN1, human, full length; UVRAG, human, full length, untagged; also called VPS34-CII REIE >AAAA; CII-AAAA; source: Expi293 cells, transfected, purified (IgG beads, TEV cleavage, gel filtration); not shown: ZZ, C-terminal, cleaved; mCherry, N-terminal, kept; copies: + + +
The description is as above. The note with it: both partners purified.

Assay [10] concerns the target human VPS34-CII with VPS34 199-REIE-202>199-ERIR-202, untagged (human, UniProt Q8NEB9 1-887; Q99570 1-1358; Q14457 1-450; Q9P2Y5 1-699, R199E | E200R | E202R). As to the kind of experiment: cell-based or functional assay.
Assay [11] addresses T4, mCherry-tagged human VPS34-CII with …. Description: cell-based or functional assay.
The target of assay [12] is mCherry-tagged yeast VPS34-CII (ScVPS34-CII), wild type (S. cerevisiae, UniProt P22543 1-875; P22219 1-1454; Q02948 1-557; Q05919 1-439).
Assay [13] concerns the target T9, mCherry-tagged yeast VPS34-CII (ScVPS34-CII), wild type (S. cerevisiae, UniProt P22543 1-875; P22219 1-1454; Q02948 1-557; Q05919 1-439).
T9 construct: S. cerevisiae Vps34; S. cerevisiae Vps15; S. cerevisiae Vps30, named as a common subunit of the yeast complexes; S. cerevisiae Vps38, named as the unique subunit of yeast complex II; also called WT ScVPS34-CII; yeast complex II; source: S. cerevisiae YOY193, galactose-induced; purified (IgG beads, TEV cleavage, Superdex 200); copies: + + +
Description: confocal microscopy bead-based binding assay; RFP-trap beads coated with mCherry-tagged yeast VPS34-CII; Vps21 Q66L-EGFP added at increasing concentrations. As to conditions: both partners purified.

In general, Kd refers to the concentration at which binding is half-saturated. Read a high Kd as weaker binding.

B1: AF488-labelled human RAB5A Q79L C19S C63S, 1-212 (natural protein, UniProt P20339 1-212, looked up)
chain: MASRGATRPNGPNTGNKISQFKLVLLGESAVGKSSLVLRFVKGQFHEFQESTIGAAFLTQTVSLDDTTVKFEIWDTAGLERYHSLAPMYYRGAQAAIVVYDITNEESFARAKNWVKELQRQASPNIVIALSGNKADLANKRAVDFQEAQSYADDNSLLFMETSAKTSMNVNEIFMAIAKKLPKNEPQNPGANSARGRGVDLTEPTQPTRNQC
modifications: AlexaFluor 488 C5 maleimide label (43% labelling efficiency)
notes: human RAB5A residues 1-212, Q79L C19S C63S; The methods say that RAB5A was loaded with GTP or GDP; also called RAB5A-AF488; RAB5-AF488
In the case of B1, the Kd in [1] was found to be 2.6 µM; in assay [2], 7.4 µM; in assay [4], 27 µM; in assay [5], 6 µM. In assay [3], the “fold tighter binding than the WT complex” value was around 3 fold.

B2: HsRAB5A Q79L C19S,C63S, 1-212, AF488-labelled (natural protein, human, UniProt P20339 1-212, looked up)
chain: B1 chain
modifications: AlexaFluor 488 C5 maleimide label (43% labelling efficiency)
notes: RAB5A, human, residues 1-212, with Q79L, C19S and C63S; Loaded with GTP or GDP before gel filtration; also called RAB5A-AF488; AF488-RAB5A; source: E. coli OverExpress C41(DE3), purified (HisTrap, ULP1 cleavage, gel filtration)
Regarding B2, the Kd in assay [6] is 6.27 µM; in [7], 22.1 µM; in [8], 6.04 µM; in assay [9], 3.21 µM and 4.24 µM.

B3: human RAB5A-GTP 1-212 (C19S, C63S, Q79L), unlabelled (natural protein, UniProt P20339 1-212, looked up)
chain: B1 chain
As for B3, the “GUV-based kinase assay: activation of VPS34-CII by membrane-tethered RAB5A (initial rates, AF647-PX signal)” value in assay [10] was 2 fold; in assay [11], around 2 fold.

B4: S. cerevisiae Vps21 Q66L, 1-207, EGFP fusion (natural protein, UniProt P36017 1-207, looked up)
chain: MNTSVTSIKLVLLGEAAVGKSSIVLRFVSNDFAENKEPTIGAAFLTQRVTINEHTVKFEIWDTAGLERFASLAPMYYRNAQAALVVYDVTKPQSFIKARHWVKELHEQASKDIIIALVGNKIDMLQEGGERKVAREEGEKLAEEKGLLFFETSAKTGENVNDVFLGIGEKIPLKTAEEQNSASNERESNNQRVDLNAANDGTSANSA
notes: S. cerevisiae Vps21 residues 1-207, Q66L (GTP-locked); Backbone pOPTH; also called Vps21 Q66L-EGFP; yeast RAB5 orthologue; source: E. coli OverExpress C41(DE3), purified (Ni-NTA, Q column, S75 gel filtration), GTP-loaded; not shown: EGFP, C-terminal, kept
B4 had a Kd in [12] of 6 µM. For the same molecule, the binding result in assay [13] was “binds”.
